For 36 sequences, Kd results are on record in the Immune Epitope Database (IEDB).

One may read the Kd as the concentration at which binding is half-saturated.

A value given as a limit tells only on which side of the number the result lay.

The target in one assay is HLA-A*24:02. The experiment in a line: IEDB peptide-MHC binding, purified MHC/competitive/radioactivity; filed as Kd, often an IC50 or EC50 that approximates it; ≥ and ≤ were set here for values at or beyond the usual limits of such assays.
In another assay the target is HLA-A*23:01. The description is as above.
In a further assay the target is HLA-A*69:01. The experiment in a line: IEDB peptide-MHC binding, purified MHC/direct/fluorescence; filed as Kd, often an IC50 or EC50 that approximates it; ≥ and ≤ were set here for values at or beyond the usual limits of such assays.
A further assay addresses HLA-A*02:01. The description is as above.
A further assay addresses HLA-A*03:01. Described as above.
In a further assay the target is HLA-A*02:02. Nature of the assay: IEDB peptide-MHC binding, purified MHC/competitive/radioactivity; filed as Kd, often an IC50 or EC50 that approximates it; ≥ and ≤ were set here for values at or beyond the usual limits of such assays.
In a further assay the target is HLA-A*02:03. Described as above.
Another assay concerns the target HLA-A*02:06. Described as above.
The target of the next assay is HLA-B*15:01. Nature of the assay: IEDB peptide-MHC binding, purified MHC/direct/fluorescence; filed as Kd, often an IC50 or EC50 that approximates it; ≥ and ≤ were set here for values at or beyond the usual limits of such assays. To be noted: source organism: Homo sapiens.
[1] abbreviates: source organism: Dengue virus 4 Philippines/H241/1956.
Where [2] appears, read: source organism: Dengue virus 2 Jamaica/1409/1983.
[3] abbreviates: source organism: Dengue virus 3 Martinique/1243/1999.
The mark [4] stands for this setting: source organism: Dengue virus 1 Nauru/West Pac/1974.
The mark [5] stands for this setting: source organism: Cryptosporidium parvum.
Where [6] appears, read: source organism: Dengue virus 1 Brazil/97-11/1997.
The mark [7] stands for this setting: source organism: Vaccinia virus WR.
The mark [8] stands for this setting: source organism: Burkholderia ambifaria AMMD.
[9] abbreviates: source organism: Giardia lamblia ATCC 50803.
[10] abbreviates: source organism: SARS coronavirus Tor2.

In the case of EYPKTKLTDW, the values for the Kd with HLA-A*24:02 (setting [1]) and in the assay with HLA-A*23:01 (setting [1]) were 0.954 µM and 2.55 µM, respectively.
WYMWLGARF: the figures for the Kd with HLA-A*24:02 (setting [2]) and with HLA-A*23:01 (setting [2]) were 0.0162 µM and 0.0202 µM, respectively.
In the case of SWALCEALTL, the Kd in the assay with HLA-A*24:02 (setting [3]) turned out to be 0.5 µM; in the assay with HLA-A*23:01 (setting [3]), 0.429 µM.
On to IFGTAYGVLF, for which the Kd with HLA-A*24:02 (setting [4]) is 0.0376 µM; with HLA-A*23:01 (setting [4]) it was 0.0104 µM.
Consider KMFNSVGGA, for which the Kd is no less than 20 µM with HLA-A*69:01 (setting [5]) and 0.026 µM with HLA-A*02:01 (setting [5]).
In the case of DFKGKTVWF, in the assay with HLA-A*23:01 (setting [2]), the Kd turned out to be 14.4 µM.
On to EYQKTKNNDW, for which the Kd is 19.7 µM with HLA-A*24:02 (setting [6]) and no less than 33.6 µM with HLA-A*23:01 (setting [6]).
For KYLYLWSFK, the Kd in the assay with HLA-A*03:01 (source organism: Clostridium botulinum) came out at 0.167 µM.
As to AYMIGQTGI, in the assay with HLA-A*24:02 (setting [1]), the Kd worked out at 0.093 µM.
On to PLPCQLMYAL, for which the Kd was 0.163 µM with HLA-A*02:02 (setting [7]), 8.71 µM with HLA-A*02:03 (setting [7]) and 9.81 µM with HLA-A*02:06 (setting [7]).
As to GVPPLPLFIF, in the assay with HLA-A*24:02 (setting [3]), the Kd was 0.494 µM.
Consider NVSRVVECL, for which the Kd was found to be 0.133 µM with HLA-A*02:02 (setting [7]), 0.938 µM with HLA-A*02:03 (setting [7]) and 1.03 µM with HLA-A*02:06 (setting [7]).
As to DVCKKNLDL, the Kd is no less than 25.4 µM with HLA-A*02:02 (setting [7]), 8.02 µM with HLA-A*02:03 (setting [7]) and 16.3 µM with HLA-A*02:06 (setting [7]).
For PISDYSAEV, the Kd with HLA-A*02:02 (setting [7]) amounted to 0.716 µM; in the assay with HLA-A*02:03 (setting [7]), 0.267 µM; in the assay with HLA-A*02:06 (setting [7]), 2.8 µM.
For DAEFVMCLEA, the Kd in the assay with HLA-A*02:02 (setting [7]) came out at 2.41 µM; with HLA-A*02:03 (setting [7]) it was 7.31 µM; in the assay with HLA-A*02:06 (setting [7]), 12.7 µM.
For the sequence QTLISLNSM, the Kd with HLA-A*02:02 (setting [7]) is 19.4 µM; with HLA-A*02:03 (setting [7]), no less than 39.3 µM; with HLA-A*02:06 (setting [7]), 7.51 µM.
Consider PTEMVDVSM, for which the Kd is 10.6 µM in the assay with HLA-A*02:02 (setting [7]), no less than 41.3 µM in the assay with HLA-A*02:03 (setting [7]) and no less than 40.2 µM with HLA-A*02:06 (setting [7]).
For VMPEKRNVV the same measures were 1.1 µM, 0.023 µM and 3.29 µM.
For YLNGGRRGY, the Kd with HLA-A*69:01 (setting [8]) and with HLA-A*02:01 (setting [8]) was no less than 20 µM in each case.
On to TLYNHHRQY, for which the Kd with HLA-A*03:01 (source organism: Burkholderia mallei) was found to be 0.046 µM.
Take RVTKRDESSI: the Kd with HLA-A*02:02 (setting [7]) is 12.3 µM; with HLA-A*02:03 (setting [7]), 10.7 µM; with HLA-A*02:06 (setting [7]), no less than 22.2 µM.
Take TINALVYFST: the Kd was 14.1 µM with HLA-A*02:02 (setting [7]), 7.34 µM with HLA-A*02:03 (setting [7]) and no less than 62.2 µM in the assay with HLA-A*02:06 (setting [7]).
Turning to LANERYRSA, the Kd with HLA-A*02:02 (setting [7]) is no less than 31.3 µM; with HLA-A*02:03 (setting [7]), 0.554 µM; with HLA-A*02:06 (setting [7]) it was no less than 77.1 µM.
Take SLNPYYQSY: the Kd in the assay with HLA-A*69:01 (setting [9]) and in the assay with HLA-A*02:01 (setting [9]) was no less than 20 µM each time.
As to LFKTNTGTI, the Kd in the assay with HLA-A*24:02 (setting [2]) amounted to 1.28 µM.
As for LITNTKSDNI, the Kd came to 2.25 µM in the assay with HLA-A*02:02 (setting [7]), 3.08 µM in the assay with HLA-A*02:03 (setting [7]) and 18.7 µM with HLA-A*02:06 (setting [7]).
LMWFIISIV: the Kd amounted to 0.0601 µM with HLA-A*02:02 (setting [10]), 0.00718 µM with HLA-A*02:03 (setting [10]) and 0.0268 µM with HLA-A*02:06 (setting [10]).
As to ELKDLLNVT, the Kd was 1.54 µM with HLA-A*02:02 (setting [7]), 0.209 µM with HLA-A*02:03 (setting [7]) and no less than 38.4 µM with HLA-A*02:06 (setting [7]).
Consider VILKDPRIA, for which the Kd is 10.6 µM with HLA-A*02:02 (setting [7]), 0.603 µM with HLA-A*02:03 (setting [7]) and 0.318 µM in the assay with HLA-A*02:06 (setting [7]).
Consider FHMDPSGTF, for which the Kd was 0.465 µM in the assay with HLA-B*15:01 and 14.4 µM with HLA-A*02:01 (source organism: Homo sapiens).
Consider AVIIMAINV, for which the dissociation constant Kd with HLA-A*02:02 (setting [7]) was determined as 9.07 µM; with HLA-A*02:03 (setting [7]), 2.76 µM; with HLA-A*02:06 (setting [7]), 0.0652 µM.
Consider PTPKKMNIVT, for which the Kd in the assay with HLA-A*02:02 (setting [7]) is no less than 65.8 µM; with HLA-A*02:03 (setting [7]) it was no less than 55.7 µM; with HLA-A*02:06 (setting [7]), no less than 69.8 µM.
As for FAFIDFSKST, the Kd with HLA-A*02:02 (setting [7]) was found to be 11.8 µM; with HLA-A*02:03 (setting [7]) it was 2.41 µM; with HLA-A*02:06 (setting [7]), 1.41 µM.
On to LIANIFTPLV, for which the equilibrium dissociation constant (Kd) with HLA-A*02:02 (setting [10]) was determined as 0.000398 µM; with HLA-A*02:03 (setting [10]), 0.0134 µM; in the assay with HLA-A*02:06 (setting [10]), 0.0157 µM.
For YVIPDELIDV, the figures for the dissociation constant (Kd) with HLA-A*02:02 (setting [7]), with HLA-A*02:03 (setting [7]) and with HLA-A*02:06 (setting [7]) were 0.0181 µM, 0.0139 µM and 0.0123 µM, respectively.
In the case of TLVKSGLTEV, the dissociation constant Kd in the assay with HLA-A*02:02 (setting [7]) was determined as 0.0641 µM; in the assay with HLA-A*02:03 (setting [7]), 0.00293 µM; with HLA-A*02:06 (setting [7]), 0.0451 µM.
